Laboratory results reported in publication PMC8330776.

Target: SARS-CoV-2 S trimer (SARS-CoV-2) (UniProt P0DTC2)
Assay: SPR

Substance	Kd [nM]	koff [s⁻¹]	kon [M⁻¹ s⁻¹]
Lentil lectin derived from Lens culinaris (natural protein)	8.67	0.000919	106000
erythroagglutinin PHA-E from Phaseolus vulgaris (red kidney bean) (from UniProt P05088 22-275) (natural protein)	160	0.00331	20700
lectin from Datura stramonium (jimson weed, thorn apple) (natural protein)	0.823	0.00144	1.75e+06
lectin from Galanthus nivalis (snowdrop) (natural protein)	1.53	0.00121	792000
leucoagglutinin PHA-L from Phaseolus vulgaris (red kidney bean) (from UniProt P05087 21-272) (natural protein)	37.6	0.00262	69700
phytohaemagglutinin PHA-M from Phaseolus vulgaris (red kidney bean) (natural protein)	2480	0.0196	7890
phytohaemagglutinin PHA-P from Phaseolus vulgaris (red kidney bean) (natural protein)	32.5	0.00501	154000
sambucus sieboldiana lectin (natural protein)	31.5	0.000886	28100
succinyl-concanavalin A (natural protein)	201000	0.00148	7.37
